Measured values from publication PMC4464616, “SIRT6 protein deacetylase interacts with MYH DNA glycosylase, APE1 endonuclease, and Rad9–Rad1–Hus1 checkpoint clamp” (BMC Molecular Biology, 2015).
Residue numbers refer to the chain shown, from its start.

B1: FLAG-tagged mouse Sirt6 (FLAG-mSirt6), wild type (natural protein, UniProt P59941 1-334, looked up)
chain: MSVNYAAGLSPYADKGKCGLPEIFDPPEELERKVWELARLMWQSSSVVFHTGAGISTASGIPDFRGPHGVWTMEERGLAPKFDTTFENARPSKTHMALVQLERMGFLSFLVSQNVDGLHVRSGFPRDKLAELHGNMFVEECPKCKTQYVRDTVVGTMGLKATGRLCTVAKTRGLRACRGELRDTILDWEDSLPDRDLMLADEASRTADLSVTLGTSLQIRPSGNLPLATKRRGGRLVIVNLQPTKHDRQADLRIHGYVDEVMCRLMKHLGLEIPAWDGPCVLDKALPPLPRPVALKAEPPVHLNGAVHVSYKSKPNSPILHRPPKRVKTEAAPS
notes: mouse Sirt6, full length cDNA in pcDNA3.1; about 90% pure
B2: GST-hMYH(65-350) (domain or fragment, human, UniProt Q9UIF7-3 65-350, looked up)
chain: ASVSSYHLFRDVAEVTAFRGSLLSWYDQEKRDLPWRRRAEDEMDLDRRAYAVWVSEVMLQQTQVATVINYYTGWMQKWPTLQDLASASLEEVNQLWAGLGYYSRGRRLQEGARKVVEELGGHMPRTAETLQQLLPGVGRYTAGAIASIAFGQATGVVDGNVARVLCRVRAIGADPSSTLVSQQLWGLAQQLVDPARPGDFNQAAMELGATVCTPQRPLCSQCPVESLCRARQRVEQEQLLASGSLSGSPDVEECAPNTGQCHLCLPPSEPWDQTLGVVNFPRKASR
notes: also called MYHΔC5; ΔC5; source: purified, immobilised on beads
B3: GST-hRad1 (natural protein, human, UniProt O60671 1-282, looked up)
chain: MPLLTQQIQDEDDQYSLVASLDNVRNLSTILKAIHFREHATCFATKNGIKVTVENAKCVQANAFIQAGIFQEFKVQEESVTFRINLTVLLDCLSIFGSSPMPGTLTALRMCYQGYGYPLMLFLEEGGVVTVCKINTQEPEETLDFDFCSTNVINKIILQSEGLREAFSELDMTSEVLQITMSPDKPYFRLSTFGNAGSSHLDYPKDSDLMEAFHCNQTQVNRYKISLLKPSTKALVLSCKVSIRTDNRGFLSLQYMIRNEDGQICFVEYYCCPDEEVPESES
notes: human Rad1, subunit of the Rad9-Rad1-Hus1 checkpoint clamp; also called GST-Rad1; GST-tagged hRad1; source: immobilised on beads
B4: His-tagged human Hus1 (hHus1) (natural protein, UniProt O60921 1-280, looked up)
chain: MKFRAKIVDGACLNHFTRISNMIAKLAKTCTLRISPDKLNFILCDKLANGGVSMWCELEQENFFNEFQMEGVSAENNEIYLELTSENLSRALKTAQNARALKIKLTNKHFPCLTVSVELLSMSSSSRIVTHDIPIKVIPRKLWKDLQEPVVPDPDVSIYLPVLKTMKSVVEKMKNISNHLVIEANLDGELNLKIETELVCVTTHFKDLGNPPLASESTHEDRNVEHMAEVHIDIRKLLQFLAGQQVNPTKALCNIVNNKMVHFDLLHEDVSLQYFIPALS
notes: human Hus1, subunit of the Rad9-Rad1-Hus1 checkpoint clamp; pET21a usually adds a C-terminal His6 (surmise); source: E. coli BL21-Star with pET21a-hHus1, purified

Experiments:
GST-hMYH(1-350) = molecular target: T1, GST-hMYH(1-350) (human, UniProt Q9UIF7-3 1-350); assay: pull-down; GST fusion protein immobilised on beads; 50 ug/ml ethidium bromide added for 30 min before the partner; bound protein detected by Western blot (FLAG, hAPE1 or His antibody); in some panels a further purified partner (hAPE1, mSirt6, hHus1) was added; settings: both partners purified
T1 construct: also called MYHΔC3; ΔC3; source: purified, immobilised on beads
T1 sequence (looked up): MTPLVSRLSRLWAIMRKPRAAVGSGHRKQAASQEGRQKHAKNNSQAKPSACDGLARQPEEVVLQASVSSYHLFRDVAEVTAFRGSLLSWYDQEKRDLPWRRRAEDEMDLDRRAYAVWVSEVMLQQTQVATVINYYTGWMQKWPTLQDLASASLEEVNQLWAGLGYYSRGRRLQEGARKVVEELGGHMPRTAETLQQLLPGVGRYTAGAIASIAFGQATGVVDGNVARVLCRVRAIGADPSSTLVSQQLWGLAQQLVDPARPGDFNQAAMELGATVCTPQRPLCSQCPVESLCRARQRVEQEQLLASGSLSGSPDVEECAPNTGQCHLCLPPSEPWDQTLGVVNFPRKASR

GST-hMYH(1-350) Q324H = molecular target: T2, GST-hMYH(1-350) Q324H (human, UniProt Q9UIF7-3 1-350, Q324H); assay: as above; settings: both partners purified
T2 construct: human MutY homolog (MYH, MUTYH), residues 1-350 with Q324H, a variant found in MAP patients; also called hMYH^Q324H; Q338H according to the new nomenclature; source: purified, immobilised on beads
T2 sequence (looked up): T1 sequence (looked up) with Q324H

GST-hRad9 = molecular target: T3, GST-hRad9 (human, UniProt Q99638 1-391); assay: as above; settings: both partners purified
T3 construct: human Rad9, subunit of the Rad9-Rad1-Hus1 checkpoint clamp; also called GST-Rad9; GST-tagged hRad9; source: immobilised on beads
T3 sequence (looked up): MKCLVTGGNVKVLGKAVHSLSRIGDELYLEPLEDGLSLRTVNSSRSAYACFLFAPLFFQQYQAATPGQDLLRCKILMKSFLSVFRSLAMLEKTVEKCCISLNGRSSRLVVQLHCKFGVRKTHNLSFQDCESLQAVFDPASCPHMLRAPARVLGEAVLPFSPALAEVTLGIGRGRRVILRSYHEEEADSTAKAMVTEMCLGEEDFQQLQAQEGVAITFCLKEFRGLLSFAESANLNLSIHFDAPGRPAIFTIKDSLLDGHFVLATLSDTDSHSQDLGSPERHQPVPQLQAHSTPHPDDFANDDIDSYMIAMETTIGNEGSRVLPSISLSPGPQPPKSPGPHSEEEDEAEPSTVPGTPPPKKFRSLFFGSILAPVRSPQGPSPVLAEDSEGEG

[1] = molecular target: T4, mouse Myh (mMyh), recombinant (mouse, UniProt Q99P21 1-515); assay: cell-based or functional assay
T4 sequence (looked up): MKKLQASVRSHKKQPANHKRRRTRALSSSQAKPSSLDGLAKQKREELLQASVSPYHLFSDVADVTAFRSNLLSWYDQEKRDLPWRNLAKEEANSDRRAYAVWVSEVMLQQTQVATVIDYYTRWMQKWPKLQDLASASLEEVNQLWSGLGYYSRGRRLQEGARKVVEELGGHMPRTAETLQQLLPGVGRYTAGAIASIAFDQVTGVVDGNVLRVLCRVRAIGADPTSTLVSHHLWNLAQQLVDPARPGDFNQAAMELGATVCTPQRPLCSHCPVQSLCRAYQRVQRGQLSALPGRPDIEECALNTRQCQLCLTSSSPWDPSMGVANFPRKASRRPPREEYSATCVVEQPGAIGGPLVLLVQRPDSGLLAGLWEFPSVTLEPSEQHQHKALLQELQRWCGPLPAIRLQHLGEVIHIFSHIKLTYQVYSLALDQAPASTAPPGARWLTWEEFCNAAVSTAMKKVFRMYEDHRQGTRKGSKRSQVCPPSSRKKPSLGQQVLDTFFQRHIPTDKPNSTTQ

[2] = molecular target: human APE1 (hAPE1), recombinant (human, UniProt P27695 1-318); assay: cell-based or functional assay
[3] = molecular target: B1; assay: pull-down; GST fusion protein immobilised on beads; 50 ug/ml ethidium bromide added for 30 min before the partner; bound protein detected by Western blot (FLAG, hAPE1 or His antibody); in some panels a further purified partner (hAPE1, mSirt6, hHus1) was added; settings: both partners purified

Chain of human APE1 (hAPE1), recombinant (P27695 whole entry, the tested form may be a part): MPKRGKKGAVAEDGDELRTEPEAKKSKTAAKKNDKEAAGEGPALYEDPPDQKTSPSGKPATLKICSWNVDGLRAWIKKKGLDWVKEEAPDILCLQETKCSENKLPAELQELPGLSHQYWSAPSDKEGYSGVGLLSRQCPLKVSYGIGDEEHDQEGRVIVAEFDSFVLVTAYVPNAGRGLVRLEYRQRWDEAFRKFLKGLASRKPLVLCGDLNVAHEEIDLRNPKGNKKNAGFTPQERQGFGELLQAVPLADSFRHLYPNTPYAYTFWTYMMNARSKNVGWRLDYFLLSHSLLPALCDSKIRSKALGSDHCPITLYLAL

B1
fold stimulation of binding with a tenfold excess of hAPE1, against no hAPE1 (GST-hMYH(1-350)): 3 fold | binding result (GST-hMYH(1-350) Q324H): binds | binding result (GST-hRad9): binds | mMyh glycosylase activity on FAM-labeled A/G^o-DNA (0.5 nM mMyh, 1-32 nM mSirt6); fold stimulation at a Sirt6/Myh ratio of 32 [1]: 3 fold | 3'-phosphodiesterase activity of hAPE1 on 3'-FAM-labeled U/G-DNA (0.01 nM hAPE1, 1-16 nM mSirt6); fold stimulation at a Sirt6/APE1 ratio of 400 [2]: 2 fold | AP endonuclease activity of hAPE1 on FAM-labeled THF/G-DNA (0.002 nM hAPE1, 1-8 nM mSirt6); fold stimulation at a Sirt6/APE1 ratio of 3,000 [2]: 2 fold

B2
binding result [3]: binds

B3
binding result [3]: binds

B4
binding result (GST-hMYH(1-350)): binds
